T1: FcγRIIb (human, UniProt P31994 43-217)
T1 construct: extracellular domain; also called 2b; FcgRIIb
T1 sequence (looked up): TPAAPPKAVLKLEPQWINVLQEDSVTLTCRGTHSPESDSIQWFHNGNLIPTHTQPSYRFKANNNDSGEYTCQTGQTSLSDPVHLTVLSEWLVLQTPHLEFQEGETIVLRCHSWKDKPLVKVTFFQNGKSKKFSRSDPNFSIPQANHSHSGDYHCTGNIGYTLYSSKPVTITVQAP


These binders were tested against T1, FcγRIIb (assay: SPR (Biacore), binding relative to GpH7-A5/GpH7-B3/GpL16-k0 = 100).
Experimental: Analysis of interaction between objective antibody and the FcγR was carried out using Biacore T100 (GE Healthcare). HBS-EP+ (GE Healthcare) was used as the running buffer, and the measurement temperature was set to 25° C. Chips produced by immobilizing the antigen peptide by the amine coupling method to a Series S Sencor Chip CM5 (GE Healthcare), or alternatively, chips produced by allowing preliminarily biotinylated antigen peptides to interact with and immobilize onto a Series S Sensor Chip SA (certified) (GE Healthcare) were used. Antibodies of interest were captured onto an antigen peptide-immobilized chip, and allowed to interact to each FcγR diluted with running buffer. To regenerate and repeatedly use the chip, the antibodies captured on the chip were washed off by reacting 10 mM glycine-HCl, pH 1.5.
The FcγR-binding activity of each antibody was assessed primarily using as an indicator the FcγR-binding activity and dissociation constant for FcγR.

| Binder | He/Con_2b |
| --- | --- |
| GpH7-A5/GpH7-B3 variant P238_19Q/GpL16-k0 (antibody, human IgG1, kappa, also called He Ab P238_19Q) heavy 1: not shown heavy 2: not shown light: DIVMTQSPLSLPVTPGEPASISCQASESLVHSNRNTYLHWYLQKPGQSPQLLIYKVSNRFSGVPDRFSGSGSGTDFTLKISRVEAEDVGVYYCSQNTHVPPTFGQGTKVEIERTVAAPSVFIFPPSDEQLKSGTASVVCLLNNFYPREAKVQWKVDNALQSGNSQESVTEQDSKDSTYSLSSTLTLSKADYEKHKVYACEVTHQGLSSPVTKSFNRGEC | 110 % of control |
| GpH7-A5/GpH7-B3 variant P331_10E/GpL16-k0 (antibody, human IgG1, kappa, also called He Ab P331_10E) heavy 1: not shown heavy 2: not shown light: DIVMTQSPLSLPVTPGEPASISCQASESLVHSNRNTYLHWYLQKPGQSPQLLIYKVSNRFSGVPDRFSGSGSGTDFTLKISRVEAEDVGVYYCSQNTHVPPTFGQGTKVEIERTVAAPSVFIFPPSDEQLKSGTASVVCLLNNFYPREAKVQWKVDNALQSGNSQESVTEQDSKDSTYSLSSTLTLSKADYEKHKVYACEVTHQGLSSPVTKSFNRGEC | 116 % of control |
| GpH7-A5/GpH7-B3 variant S267_01G/GpL16-k0 (antibody, human IgG1, kappa, also called He Ab S267_01G) heavy 1: not shown heavy 2: not shown light: DIVMTQSPLSLPVTPGEPASISCQASESLVHSNRNTYLHWYLQKPGQSPQLLIYKVSNRFSGVPDRFSGSGSGTDFTLKISRVEAEDVGVYYCSQNTHVPPTFGQGTKVEIERTVAAPSVFIFPPSDEQLKSGTASVVCLLNNFYPREAKVQWKVDNALQSGNSQESVTEQDSKDSTYSLSSTLTLSKADYEKHKVYACEVTHQGLSSPVTKSFNRGEC | 105 % of control |
| GpH7-A5/GpH7-B3 variant P271_10E/GpL16-k0 (antibody, human IgG1, kappa, also called He Ab P271_10E) heavy 1: not shown heavy 2: not shown light: DIVMTQSPLSLPVTPGEPASISCQASESLVHSNRNTYLHWYLQKPGQSPQLLIYKVSNRFSGVPDRFSGSGSGTDFTLKISRVEAEDVGVYYCSQNTHVPPTFGQGTKVEIERTVAAPSVFIFPPSDEQLKSGTASVVCLLNNFYPREAKVQWKVDNALQSGNSQESVTEQDSKDSTYSLSSTLTLSKADYEKHKVYACEVTHQGLSSPVTKSFNRGEC | 109 % of control |
| GpH7-A5/GpH7-B3 variant P331_20W/GpL16-k0 (antibody, human IgG1, kappa, also called He Ab P331_20W) heavy 1: not shown heavy 2: not shown light: DIVMTQSPLSLPVTPGEPASISCQASESLVHSNRNTYLHWYLQKPGQSPQLLIYKVSNRFSGVPDRFSGSGSGTDFTLKISRVEAEDVGVYYCSQNTHVPPTFGQGTKVEIERTVAAPSVFIFPPSDEQLKSGTASVVCLLNNFYPREAKVQWKVDNALQSGNSQESVTEQDSKDSTYSLSSTLTLSKADYEKHKVYACEVTHQGLSSPVTKSFNRGEC | 111 % of control |
| GpH7-A5/GpH7-B3 variant P331_06M/GpL16-k0 (antibody, human IgG1, kappa, also called He Ab P331_06M) heavy 1: not shown heavy 2: not shown light: DIVMTQSPLSLPVTPGEPASISCQASESLVHSNRNTYLHWYLQKPGQSPQLLIYKVSNRFSGVPDRFSGSGSGTDFTLKISRVEAEDVGVYYCSQNTHVPPTFGQGTKVEIERTVAAPSVFIFPPSDEQLKSGTASVVCLLNNFYPREAKVQWKVDNALQSGNSQESVTEQDSKDSTYSLSSTLTLSKADYEKHKVYACEVTHQGLSSPVTKSFNRGEC | 102 % of control |
| GpH7-A5/GpH7-B3 variant P331_03V/GpL16-k0 (antibody, human IgG1, kappa, also called He Ab P331_03V) heavy 1: not shown heavy 2: not shown light: DIVMTQSPLSLPVTPGEPASISCQASESLVHSNRNTYLHWYLQKPGQSPQLLIYKVSNRFSGVPDRFSGSGSGTDFTLKISRVEAEDVGVYYCSQNTHVPPTFGQGTKVEIERTVAAPSVFIFPPSDEQLKSGTASVVCLLNNFYPREAKVQWKVDNALQSGNSQESVTEQDSKDSTYSLSSTLTLSKADYEKHKVYACEVTHQGLSSPVTKSFNRGEC | 119 % of control |
| GpH7-A5/GpH7-B3 variant S239_05P/GpL16-k0 (antibody, human IgG1, kappa, also called He Ab S239_05P) heavy 1: not shown heavy 2: not shown light: DIVMTQSPLSLPVTPGEPASISCQASESLVHSNRNTYLHWYLQKPGQSPQLLIYKVSNRFSGVPDRFSGSGSGTDFTLKISRVEAEDVGVYYCSQNTHVPPTFGQGTKVEIERTVAAPSVFIFPPSDEQLKSGTASVVCLLNNFYPREAKVQWKVDNALQSGNSQESVTEQDSKDSTYSLSSTLTLSKADYEKHKVYACEVTHQGLSSPVTKSFNRGEC | 102 % of control |
| GpH7-A5/GpH7-B3 variant P331_15Y/GpL16-k0 (antibody, human IgG1, kappa, also called He Ab P331_15Y) heavy 1: not shown heavy 2: not shown light: DIVMTQSPLSLPVTPGEPASISCQASESLVHSNRNTYLHWYLQKPGQSPQLLIYKVSNRFSGVPDRFSGSGSGTDFTLKISRVEAEDVGVYYCSQNTHVPPTFGQGTKVEIERTVAAPSVFIFPPSDEQLKSGTASVVCLLNNFYPREAKVQWKVDNALQSGNSQESVTEQDSKDSTYSLSSTLTLSKADYEKHKVYACEVTHQGLSSPVTKSFNRGEC | 114 % of control |
| GpH7-A5/GpH7-B3 variant S239_03V/GpL16-k0 (antibody, human IgG1, kappa, also called He Ab S239_03V) heavy 1: not shown heavy 2: not shown light: DIVMTQSPLSLPVTPGEPASISCQASESLVHSNRNTYLHWYLQKPGQSPQLLIYKVSNRFSGVPDRFSGSGSGTDFTLKISRVEAEDVGVYYCSQNTHVPPTFGQGTKVEIERTVAAPSVFIFPPSDEQLKSGTASVVCLLNNFYPREAKVQWKVDNALQSGNSQESVTEQDSKDSTYSLSSTLTLSKADYEKHKVYACEVTHQGLSSPVTKSFNRGEC | 108 % of control |
| GpH7-A5/GpH7-B3 variant S239_10E/GpL16-k0 (antibody, human IgG1, kappa, also called He Ab S239_10E) heavy 1: not shown heavy 2: not shown light: DIVMTQSPLSLPVTPGEPASISCQASESLVHSNRNTYLHWYLQKPGQSPQLLIYKVSNRFSGVPDRFSGSGSGTDFTLKISRVEAEDVGVYYCSQNTHVPPTFGQGTKVEIERTVAAPSVFIFPPSDEQLKSGTASVVCLLNNFYPREAKVQWKVDNALQSGNSQESVTEQDSKDSTYSLSSTLTLSKADYEKHKVYACEVTHQGLSSPVTKSFNRGEC | 181 % of control |

Further lines, results first:

| He/Con_2b | Binder |
| --- | --- |
| 123 % of control | GpH7-A5/GpH7-B3 variant P238_20W/GpL16-k0 (antibody, human IgG1, kappa, also called He Ab P238_20W) heavy 1: not shown heavy 2: not shown light: DIVMTQSPLSLPVTPGEPASISCQASESLVHSNRNTYLHWYLQKPGQSPQLLIYKVSNRFSGVPDRFSGSGSGTDFTLKISRVEAEDVGVYYCSQNTHVPPTFGQGTKVEIERTVAAPSVFIFPPSDEQLKSGTASVVCLLNNFYPREAKVQWKVDNALQSGNSQESVTEQDSKDSTYSLSSTLTLSKADYEKHKVYACEVTHQGLSSPVTKSFNRGEC |
| 120 % of control | GpH7-A5/GpH7-B3 variant P271_09D/GpL16-k0 (antibody, human IgG1, kappa, also called He Ab P271_09D) heavy 1: not shown heavy 2: not shown light: DIVMTQSPLSLPVTPGEPASISCQASESLVHSNRNTYLHWYLQKPGQSPQLLIYKVSNRFSGVPDRFSGSGSGTDFTLKISRVEAEDVGVYYCSQNTHVPPTFGQGTKVEIERTVAAPSVFIFPPSDEQLKSGTASVVCLLNNFYPREAKVQWKVDNALQSGNSQESVTEQDSKDSTYSLSSTLTLSKADYEKHKVYACEVTHQGLSSPVTKSFNRGEC |
| 116 % of control | GpH7-A5/GpH7-B3 variant P331_16H/GpL16-k0 (antibody, human IgG1, kappa, also called He Ab P331_16H) heavy 1: not shown heavy 2: not shown light: DIVMTQSPLSLPVTPGEPASISCQASESLVHSNRNTYLHWYLQKPGQSPQLLIYKVSNRFSGVPDRFSGSGSGTDFTLKISRVEAEDVGVYYCSQNTHVPPTFGQGTKVEIERTVAAPSVFIFPPSDEQLKSGTASVVCLLNNFYPREAKVQWKVDNALQSGNSQESVTEQDSKDSTYSLSSTLTLSKADYEKHKVYACEVTHQGLSSPVTKSFNRGEC |
| 114 % of control | GpH7-A5/GpH7-B3 variant P331_07I/GpL16-k0 (antibody, human IgG1, kappa, also called He Ab P331_07I) heavy 1: not shown heavy 2: not shown light: DIVMTQSPLSLPVTPGEPASISCQASESLVHSNRNTYLHWYLQKPGQSPQLLIYKVSNRFSGVPDRFSGSGSGTDFTLKISRVEAEDVGVYYCSQNTHVPPTFGQGTKVEIERTVAAPSVFIFPPSDEQLKSGTASVVCLLNNFYPREAKVQWKVDNALQSGNSQESVTEQDSKDSTYSLSSTLTLSKADYEKHKVYACEVTHQGLSSPVTKSFNRGEC |
| 101 % of control | GpH7-A5/GpH7-B3 variant S239_06M/GpL16-k0 (antibody, human IgG1, kappa, also called He Ab S239_06M) heavy 1: not shown heavy 2: not shown light: DIVMTQSPLSLPVTPGEPASISCQASESLVHSNRNTYLHWYLQKPGQSPQLLIYKVSNRFSGVPDRFSGSGSGTDFTLKISRVEAEDVGVYYCSQNTHVPPTFGQGTKVEIERTVAAPSVFIFPPSDEQLKSGTASVVCLLNNFYPREAKVQWKVDNALQSGNSQESVTEQDSKDSTYSLSSTLTLSKADYEKHKVYACEVTHQGLSSPVTKSFNRGEC |
